Test results from patent publication US20230357387A1 (published 2023).
Positions count from the first letter of the chain named. Blank lines part the entries; values can stand above or below the binder they belong to.

Key:
[1] = biological target: T1, human ZIP12 extracellular domain expressed as a GST fusion protein (human, UniProt Q504Y0 1-202); test: ELISA-based reactivity screening, 63A11 lineage (FIG. 6)
T1 construct: also called hZIP12-ECD-GST; huZIP12-ECD-GST; not shown: glutathione S-transferase (GST) fusion partner

[2] = biological target: T2, human ZIP4 extracellular domain GST fusion (human, UniProt Q6P5W5 23-327); test: as above
T2 construct: also called hZIP4-ECD-GST; huZIP4-ECD-GST; not shown: glutathione S-transferase (GST) fusion partner
T2 sequence: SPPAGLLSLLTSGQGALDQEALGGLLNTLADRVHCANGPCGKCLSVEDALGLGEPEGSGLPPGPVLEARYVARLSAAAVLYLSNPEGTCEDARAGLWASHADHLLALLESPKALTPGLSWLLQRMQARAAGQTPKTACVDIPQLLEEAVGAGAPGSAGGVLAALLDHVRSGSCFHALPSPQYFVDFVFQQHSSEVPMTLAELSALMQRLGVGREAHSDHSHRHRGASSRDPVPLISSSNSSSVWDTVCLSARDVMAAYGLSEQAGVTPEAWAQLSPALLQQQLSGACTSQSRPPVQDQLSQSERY

[3] = biological target: T3, ZIP4 as tested by flow cytometry (human, UniProt Q6P5W5 23-647); test: flow cytometry-based reactivity screening, 63A11 lineage (FIG. 7)
T3 sequence: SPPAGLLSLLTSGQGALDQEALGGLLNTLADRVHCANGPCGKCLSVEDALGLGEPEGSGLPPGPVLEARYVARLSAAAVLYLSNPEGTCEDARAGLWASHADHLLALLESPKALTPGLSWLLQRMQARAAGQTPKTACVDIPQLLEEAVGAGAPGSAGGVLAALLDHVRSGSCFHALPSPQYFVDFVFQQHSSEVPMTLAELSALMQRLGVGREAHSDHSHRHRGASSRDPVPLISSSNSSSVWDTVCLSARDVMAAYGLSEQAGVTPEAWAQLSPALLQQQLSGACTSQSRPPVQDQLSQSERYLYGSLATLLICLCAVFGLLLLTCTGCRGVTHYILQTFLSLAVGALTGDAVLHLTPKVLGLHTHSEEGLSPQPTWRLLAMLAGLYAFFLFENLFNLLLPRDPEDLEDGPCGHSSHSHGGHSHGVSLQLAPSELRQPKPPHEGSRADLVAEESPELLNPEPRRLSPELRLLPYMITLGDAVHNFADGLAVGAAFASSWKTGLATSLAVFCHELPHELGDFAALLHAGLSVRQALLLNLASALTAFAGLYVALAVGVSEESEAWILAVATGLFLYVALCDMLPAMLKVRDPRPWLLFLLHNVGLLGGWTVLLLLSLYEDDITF

[4] = biological target: T4, human ZIP12 on human ZIP12 expressing transfectant cells (human, UniProt Q504Y0 1-691); test: as above
T4 construct: Zinc transporter; also called ZIP12 transfected cells

[5] = biological target: T1, human ZIP12 extracellular domain …; test: ELISA-based reactivity screening, 51B12 lineage (FIG. 9)
[6] = biological target: T2, human ZIP4 extracellular domain GST …; test: as above

binding result [1]: binds
binding result [2]: no binding
binding result [3]: no binding
binding result [4]: binds
B1: 63A11 parental antibody (antibody, human IgG1, kappa, V domains shown)
VH: EVQLVESGGGLVKPGGSRKLSCAASGFTFSDHGMHWVRQAPEKGLEWVAYISSGSSAIFYADTVKGRFTMSRDNAKNTLFLQMTSLRSEDTAMYFCARWTNLYAMDYWGQGTSVTVSS
VL: DIVLTQSPASLAVSLGQRATISCRASKSVSTSGYSYMHWYQQKPGQPPKLLIYLASNLESGVPARFSGSGSGTDFTLNIHPVEEEDAATYYCQHSRELPLTFGAGTKLELKR
notes: the full chains it gives are the chimeric ones; also called 19214; parent antibody

binding result [5]: binds
binding result [6]: no binding
B2: 51B12 parental antibody (antibody, human IgG1, kappa, V domains shown)
VH: B1 VH with H32Y, S55G, S56T, A57T, F59Y, M70I, F95Y
VL: B1 VL with L50F, L98V, L100Y, A104G, L110I
notes: also called 19213; parent antibody
